Laboratory results taken from the supplement of paper PMC10567573.

B1: KRT33B (parent)
chain: PAVDLNQVLNETRNQYEALVETNR

Variants of: B1
Test: protein stability index of a GFP-peptide fusion (GPS, HEK-293T) (PSI 1-6); higher = more stable
Settings: c terminus: a fixed tail appended
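Note: lentivirally expressed fusions sorted by FACS into six bins by GFP to DsRed ratio, PSI derived from sequencing read proportions per bin multiplied by bin number.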

Row | Variant | protein stability index
1 | N10Y | 2.47
2 | E11A | 3.63
3 | E11C | 4.3
4 | E11D | 3.77
5 | E11F | 3.84
6 | E11G | 3.85
7 | E11H | 4.13
8 | E11I | 3.97
9 | E11K | 3.85
10 | E11L | 3.81
11 | E11M | 3.31
12 | E11N | 3.94
13 | E11P | 4.27
14 | E11Q | 4.29
15 | E11R | 4.02
16 | E11S | 3.62
17 | E11T | 4.1
18 | E11V | 3.88
19 | E11W | 3.38
20 | E11Y | 3.85
21 | T12A | 2.16
22 | T12C | 3.24
23 | T12D | 4.61
24 | T12E | 4.5

Row | Variant | protein stability index
25 | T12F | 1.85
26 | T12G | 4.32
27 | T12H | 2.84
28 | T12I | 2.41
29 | T12K | 4.41
30 | T12M | 3.4
31 | T12N | 4.11
32 | T12P | 4.52
33 | T12Q | 2.85
34 | T12R | 4.89
35 | T12S | 3.8
36 | T12W | 3.09
37 | T12Y | 2.77
38 | R13A | 4.35
39 | R13C | 4.38
40 | R13D | 4.93
41 | R13E | 4.86
42 | R13F | 4.15
43 | R13G | 4.35
44 | R13H | 4.76
45 | R13I | 3.32
46 | R13K | 3.03
47 | R13L | 3.46
48 | R13M | 3.12

Row | Variant | protein stability index
49 | R13N | 5.01
50 | R13P | 5.18
51 | R13Q | 4.32
52 | R13S | 4.8
53 | R13T | 4.59
54 | R13V | 4.15
55 | R13W | 3.92
56 | R13Y | 3.69
57 | N14A | 2.25
58 | N14C | 2.82
59 | N14D | 3.59
60 | N14E | 2.68
61 | N14F | 3.54
62 | N14G | 3.32
63 | N14H | 3.53
64 | N14I | 2.02
65 | N14K | 2.63
66 | N14L | 2.07
67 | N14M | 2.05
68 | N14P | 4.43
69 | N14Q | 2.57
70 | N14R | 2.81
71 | N14S | 3.04
72 | N14T | 3.21

Row | Variant | protein stability index
73 | N14V | 3.3
74 | N14W | 2.55
75 | N14Y | 3.42
76 | Q15A | 3.84
77 | Q15C | 3.87
78 | Q15D | 4.33
79 | Q15E | 4.61
80 | Q15F | 2.72
81 | Q15G | 4.45
82 | Q15H | 3.95
83 | Q15I | 3.44
84 | Q15K | 4.06
85 | Q15L | 2.04
86 | Q15M | 1.6
87 | Q15N | 4.38
88 | Q15P | 4.39
89 | Q15R | 4.37
90 | Q15S | 3.95
91 | Q15T | 4.22
92 | Q15V | 3.82
93 | Q15W | 2.86
94 | Q15Y | 3.23
95 | Y16A | 5.14
96 | Y16C | 4.57

Row | Variant | protein stability index
97 | Y16D | 4.98
98 | Y16E | 4.85
99 | Y16F | 3.5
100 | Y16G | 5.21
101 | Y16H | 5.02
102 | Y16I | 4.17
103 | Y16K | 4.8
104 | Y16L | 4.37
105 | Y16M | 4.39
106 | Y16N | 5.25
107 | Y16P | 5.06
108 | Y16Q | 5.29
109 | Y16R | 5.09
110 | Y16S | 5.12
111 | Y16T | 5.15
112 | Y16V | 4.92
113 | Y16W | 3.89
114 | E17A | 3.65
115 | E17C | 3.65
116 | E17D | 4.23
117 | E17F | 2.9
118 | E17G | 3.91
119 | E17H | 3.9
120 | E17I | 3.13

Row | Variant | protein stability index
121 | E17K | 3.48
122 | E17L | 3.73
123 | E17M | 3.55
124 | E17N | 3.61
125 | E17P | 4.39
126 | E17Q | 4.4
127 | E17R | 3.96
128 | E17S | 4.24
129 | E17T | 3.62
130 | E17V | 3.71
131 | E17W | 3.54
132 | E17Y | 3.09
133 | A18C | 3.83
134 | A18D | 4.43
135 | A18E | 3.58
136 | A18F | 3.48
137 | A18G | 4.48
138 | A18H | 4.09
139 | A18I | 3.55
140 | A18K | 2.69
141 | A18L | 3.59
142 | A18M | 3.55
143 | A18N | 3.89
144 | A18P | 4.28

Row | Variant | protein stability index
145 | A18Q | 2.96
146 | A18R | 2.53
147 | A18S | 3.71
148 | A18T | 3.67
149 | A18V | 4.06
150 | A18W | 3.72
151 | A18Y | 3.96
152 | L19A | 5.03
153 | L19C | 4.53
154 | L19D | 5.42
155 | L19E | 5.19
156 | L19F | 4.11
157 | L19G | 4.91
158 | L19H | 4.57
159 | L19I | 4.11
160 | L19K | 4.95
161 | L19M | 3.89
162 | L19N | 4.87
163 | L19P | 4.97
164 | L19Q | 5.1
165 | L19R | 4.29
166 | L19S | 5.03
167 | L19T | 4.7
